Source: US20190300590A1 (PROTAGONIST THERAPEUTICS, published 2019)
Read-outs that look alike come from different tables or passages of the source. *1 amine or outer side, *2 acyl side, *3 side chain or, on linkers, in order; H or OH if unused. Bridges are numbered along the chain shown (N, C = ends). [ ]: non-standard residue; d: D form. The star is where a group is joined. Abu(4-yl) = O=C([C@H](CC[*:3])N[*:1])[*:2]; Palmitoyl = CCCCCCCCCCCCCCCC(=O)*; AEA = NCCOCC(=O)O

How the values were obtained:
IL23R_huFC [1] = target: T1, IL23R_huFC (human, UniProt Q5VWK5 24-353); experiment: IL23-IL23R competitive ELISA
T1 sequence (looked up): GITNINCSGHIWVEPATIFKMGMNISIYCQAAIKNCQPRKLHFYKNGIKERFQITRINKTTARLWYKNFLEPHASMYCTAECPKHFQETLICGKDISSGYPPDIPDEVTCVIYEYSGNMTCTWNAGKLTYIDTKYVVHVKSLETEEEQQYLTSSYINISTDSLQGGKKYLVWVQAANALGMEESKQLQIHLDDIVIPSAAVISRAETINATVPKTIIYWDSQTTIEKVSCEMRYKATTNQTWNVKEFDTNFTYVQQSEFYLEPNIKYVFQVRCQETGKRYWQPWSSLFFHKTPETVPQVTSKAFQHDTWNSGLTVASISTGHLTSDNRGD

[2] = target: T2, IL-23R on human cells (IL-23R-expressing DB cells; human NK cells) (human, UniProt Q5VWK5 24-629); experiment: cell-based or functional assay
T2 sequence (looked up): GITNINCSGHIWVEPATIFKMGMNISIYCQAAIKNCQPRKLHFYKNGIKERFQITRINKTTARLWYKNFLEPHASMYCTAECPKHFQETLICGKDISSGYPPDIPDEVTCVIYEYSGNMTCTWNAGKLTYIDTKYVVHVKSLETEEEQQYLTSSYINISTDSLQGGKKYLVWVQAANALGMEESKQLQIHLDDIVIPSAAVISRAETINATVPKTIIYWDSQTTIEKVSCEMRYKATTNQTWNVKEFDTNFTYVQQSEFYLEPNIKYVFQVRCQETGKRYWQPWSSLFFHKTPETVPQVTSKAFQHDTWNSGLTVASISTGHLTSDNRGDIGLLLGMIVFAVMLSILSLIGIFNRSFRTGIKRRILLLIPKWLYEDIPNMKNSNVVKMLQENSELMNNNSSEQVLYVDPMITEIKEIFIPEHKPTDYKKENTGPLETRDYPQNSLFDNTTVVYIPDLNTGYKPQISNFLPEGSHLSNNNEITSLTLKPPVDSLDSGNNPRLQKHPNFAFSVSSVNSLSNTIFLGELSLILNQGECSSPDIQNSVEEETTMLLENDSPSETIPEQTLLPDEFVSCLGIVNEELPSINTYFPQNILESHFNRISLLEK

IL23R_huFC [3] = target: T3, IL23R_huFC (human, UniProt Q5VWK5 24-353); experiment: IL23-IL23R competitive binding ELISA
T3 sequence (looked up): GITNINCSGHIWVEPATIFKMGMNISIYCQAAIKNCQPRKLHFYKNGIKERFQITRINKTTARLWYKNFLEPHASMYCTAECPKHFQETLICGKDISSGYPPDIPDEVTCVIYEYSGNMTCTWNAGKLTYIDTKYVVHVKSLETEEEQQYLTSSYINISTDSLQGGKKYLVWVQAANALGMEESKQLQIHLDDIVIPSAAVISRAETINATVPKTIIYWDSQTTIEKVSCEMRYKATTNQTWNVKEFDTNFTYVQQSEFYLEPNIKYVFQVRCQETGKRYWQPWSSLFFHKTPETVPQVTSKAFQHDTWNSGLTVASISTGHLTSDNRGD

IL23R_huFC [4] = target: T4, IL23R_huFC (human, UniProt Q5VWK5 24-353); experiment: human ELISA vs IL-23
T4 sequence (looked up): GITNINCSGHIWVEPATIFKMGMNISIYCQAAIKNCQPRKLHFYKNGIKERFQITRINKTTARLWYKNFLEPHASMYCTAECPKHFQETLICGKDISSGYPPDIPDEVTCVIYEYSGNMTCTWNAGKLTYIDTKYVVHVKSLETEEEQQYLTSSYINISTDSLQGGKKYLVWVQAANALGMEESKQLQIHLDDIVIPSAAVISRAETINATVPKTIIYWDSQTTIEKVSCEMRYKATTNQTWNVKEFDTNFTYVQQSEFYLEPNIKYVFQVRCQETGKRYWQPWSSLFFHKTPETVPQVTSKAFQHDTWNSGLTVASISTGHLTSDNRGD

Rat IL-23R_huFC [5] = target: Rat IL-23R_huFC (rat); experiment: rat ELISA vs IL-23
Rat IL-23R_huFC [6] = target: T5, Rat IL-23R_huFC (rat, UniProt F1LX96 39-369); experiment: rat IL-23R competitive binding ELISA
T5 sequence: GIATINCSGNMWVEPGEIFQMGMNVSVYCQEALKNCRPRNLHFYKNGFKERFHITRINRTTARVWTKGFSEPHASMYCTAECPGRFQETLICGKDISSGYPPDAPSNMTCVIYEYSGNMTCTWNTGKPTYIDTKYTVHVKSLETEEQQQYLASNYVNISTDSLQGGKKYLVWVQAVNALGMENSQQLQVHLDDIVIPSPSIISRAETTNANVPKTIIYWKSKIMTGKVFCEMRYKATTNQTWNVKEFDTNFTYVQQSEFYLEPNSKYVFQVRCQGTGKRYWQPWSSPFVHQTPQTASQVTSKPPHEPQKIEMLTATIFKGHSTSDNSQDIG

IL-23R on DB cells = target: T6, IL-23R on DB cells (human, UniProt Q5VWK5 24-629); experiment: cell-based or functional assay
T6 sequence (looked up): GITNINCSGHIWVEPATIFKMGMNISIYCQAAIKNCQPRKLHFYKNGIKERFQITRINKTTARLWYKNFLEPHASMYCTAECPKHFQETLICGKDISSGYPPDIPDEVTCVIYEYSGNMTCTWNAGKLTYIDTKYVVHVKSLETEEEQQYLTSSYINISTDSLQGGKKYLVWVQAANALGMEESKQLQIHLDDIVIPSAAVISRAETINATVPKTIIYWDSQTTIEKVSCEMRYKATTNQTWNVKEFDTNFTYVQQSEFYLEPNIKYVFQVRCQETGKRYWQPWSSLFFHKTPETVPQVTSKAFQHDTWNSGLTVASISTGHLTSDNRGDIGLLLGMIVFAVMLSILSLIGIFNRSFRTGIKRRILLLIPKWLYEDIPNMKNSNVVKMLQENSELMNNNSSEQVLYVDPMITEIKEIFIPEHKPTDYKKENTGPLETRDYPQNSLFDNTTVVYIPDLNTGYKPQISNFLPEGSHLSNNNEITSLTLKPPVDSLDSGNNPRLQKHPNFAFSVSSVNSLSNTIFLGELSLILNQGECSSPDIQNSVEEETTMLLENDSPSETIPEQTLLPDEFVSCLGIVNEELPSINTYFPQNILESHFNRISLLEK

Rat IL-23R_huFC [7] = target: T5, Rat IL-23R_huFC; experiment: rat IL-23R competitive binding ELISA; remark: listed apart in the source

B1: Ac-CADWVCY-[Phe(CONH2)]-[Orn]-[Dap]-FG-[AEA]-[(D)Lys]-NH2 (peptide)
peptide: CADWVCYFXXFGXK
modifications: not fully specified; Ac-; [Phe(CONH2)]; [Orn]; [Dap]; [AEA]; [(D)Lys]; -NH2
An IC50 (IL23R_huFC [1]) of about 6 µM was found for B1 in this work.

B2: Ac-CADWVCY-[hPhe]-[Orn]-[Dap]-FG-[AEA]-[(D)Lys]-NH2 (peptide)
peptide: CADWVCYFXXFGXK
modifications: not fully specified; Ac-; [hPhe]; [Orn]; [Dap]; [AEA]; [(D)Lys]; -NH2
An IC50 (IL23R_huFC [1]) of 30 µM was found for B2 in this work.

B3: Ac-[Pen]-QTWQ-[Pen]-[Phe[4-(2-aminoethoxy)]-[2-Nal]-[α-MeLeu]-[Lys(Ac)]-NN-NH2 (peptide)
peptide: XQTWQXFXLKNN
modifications: as bracketed in name; Pen-Pen disulfide
B3 was tested, and the “NK cell assay IC50 (IFNγ)” value [2] was under 10 nM.

B4: Ac-CQTWQCYWZ-LNG-NH2 (peptide)
peptide: CQTWQCYWXLNG
modifications: Ac; Z as printed (not explained); NH2
An IC50 (IL23R_huFC [3]) of 800 nM was found for B4 in this work.

B5: Ac-[Pen]-NTWQ[Pen]-[Phe(CONH2)]-[2-Nal]-[Aib]-[Lys(Ac)]-NN-NH2 (peptide)
peptide: XNTWQXFXXKNN
modifications: as bracketed in name; Pen-Pen disulfide
In the case of B5, the “NK cell assay IC50 (IFNγ)” value [2] is reported as under 10 nM.

B6: Ac-Cyclo-[[Abu]RTWQC]-YWRKFG-[AEA]-[(D)Lys]-NH2 (peptide)
peptide: Ac-[Abu(4-yl)]RTWQCYWRKFG[AEA][dK]-NH2
modifications: thioether 1-6
SMILES: CC(=O)N[C@H]1CCSC[C@@H](C(=O)N[C@@H](Cc2ccc(O)cc2)C(=O)N[C@@H](Cc2c[nH]c3ccccc23)C(=O)N[C@@H](CCCNC(=N)N)C(=O)N[C@@H](CCCCN)C(=O)N[C@@H](Cc2ccccc2)C(=O)NCC(=O)NCCOCC(=O)N[C@H](CCCCN)C(N)=O)NC(=O)[C@H](CCC(N)=O)NC(=O)[C@H](Cc2c[nH]c3ccccc23)NC(=O)[C@H]([C@@H](C)O)NC(=O)[C@H](CCCNC(=N)N)NC1=O
An IC50 (IL23R_huFC [4]) of 25 to 100 nM and an IC50 (Rat IL-23R_huFC [5]) of 100 to 1000 nM were found for B6 in this work.

B7: [Ac-[Pen]-NTWQ-[Pen]-[Phe(4-CONH2)]-[2-Nal]-[Aib]-KNN-NH2]2 DIG (peptide)
peptide: XNTWQXFXXKNN
modifications: as bracketed in name; Pen-Pen disulfide; DIG linker
With B7 the “NK cell assay IC50 (IFNγ)” value [2] was under 10 nM.

B8: Ac-[Pen]-NTWQ-[Pen]-[Phe]4-(2-aminoethoxy)]-[2-Nal]-[Aib]-[Lys(Ac)]-NN-NH2 (peptide)
peptide: XNTWQXFXXKNN
modifications: as bracketed in name; Pen-Pen disulfide
In the case of B8, the “NK cell assay IC50 (IFNγ)” value [2] is reported as under 10 nM.

B9: [Ac-[Pen]-QTWQ-[Pen]-[Phe(4-CONH2)]-[2-Nal]-[α-MeLys]-[Lys(Ac)]-NN-NH2]2DIG (peptide)
peptide: XQTWQXFXKKNN
modifications: Ac; Pen-Pen disulfide; Phe(4-CONH2); 2-Nal; α-MeLys; Lys(Ac); NH2; DIG linker joins the two subunits
An IC50 (Rat IL-23R_huFC [6]) of 10 to 25 nM was found for B9 in this work.

B10: [Ac-[Pen]-QTWQ[Pen]-[Phe[4-(2-acetylaminoethoxy)]-[2-Nal]-K-[Lys(Ac)]-NN-NH2]2DIG (peptide)
peptide: XQTWQXFXKKNN
modifications: Ac; Pen-Pen disulfide; Phe[4-(2-acetylaminoethoxy)]; 2-Nal; Lys(Ac); NH2; DIG linker joins the two subunits
An IC50 (Rat IL-23R_huFC [6]) of 25 to 100 nM was found for B10 in this work.

B11: [Ac-[Pen]-QTWQ[Pen]-[Phe[4-(2-acetylaminoethoxy)]-[2-Nal]-[α-MeVal]-KNN-NH2]2DIG (peptide)
peptide: XQTWQXFXVKNN
modifications: not fully specified; Ac; Pen-Pen disulfide; Phe[4-(2-acetylaminoethoxy)]; 2-Nal; α-MeVal; NH2; DIG linker joins the two subunits
An IC50 (Rat IL-23R_huFC [6]) of 10 to 25 nM was found for B11 in this work.

B12: [Ac-[Pen]-QTWQ-[Pen]-[Phe(4-OMe)]-[2-Nal]-[α-MeLys]-[Lys(Ac)]-NN-NH2]2DIG (peptide)
peptide: XQTWQXFXKKNN
modifications: Ac; Pen-Pen disulfide; Phe(4-OMe); 2-Nal; α-MeLys; Lys(Ac); NH2; DIG linker joins the two subunits
An IC50 (Rat IL-23R_huFC [6]) of 10 to 25 nM was found for B12 in this work.

B13: Ac-CQTWQCYW-[α-MeLeu]-ENG-NH2 (peptide)
peptide: CQTWQCYWLENG
modifications: not fully specified; Ac; α-MeLeu at 9; NH2
In the case of B13, the “pStat3 HTRF IC50” value (IL-23R on DB cells) is reported as 5 nM and the IC50 (Rat IL-23R_huFC [7]) is reported as 27 nM.

B14: Ac-CQTWQCYW-[K(Palm)]-ENG-NH2 (peptide)
peptide: Ac-CQTWQCYWK(Palmitoyl)ENG-NH2
modifications: cysteine pairing not given here
An IC50 (IL23R_huFC [3]) of 4880 nM was found for B14 in this work.
